In US20200199207A1:

B1: h32B10 (antibody, V domains shown)
VH: QVQLVQSGAEVKKPGASVKVSCRASGYIFRNFDINWVRQATGQGLEWMGWMSPKSGDTGYAQKFQGRVTMTRDTSINTAYMELSSLTSEDSAVYYCARGVDGTNWGQGTRVTVSS
VL: DIVMTQSPDSLGVSLGERATISCKSSQSILDNSNNKNFIAWFQQKPGQPPKLLIYWASARESGVPDRFSGSGSGTEFTLTINSLQAEDVAVYYCYQYYSTPHTFGQGTKLDLR
B2: h7G6 (antibody, V domains shown)
VH: QVQLVESGGGVVQPGRSLRLSCAASGIAFNDYTMHWVRRSPDKGLEWVAAISYGGTNKYYADSVKGRFTISRDSSKNTLFLQMDSLRVEDTAVYYCARDSGYRSLLHWGQGTLVTVSS
VL: EIVLTQSPLSLPVTPGEPASISCRSSQSLVHRNGYNYLDWYLQKPGQSPQLLIYMASKRASGVPDRFSGSGSGTEFTLKISRVEAEDVGIYYCMQALQTWTFGQGTKVEVN
B3: h2F8 (antibody, V domains shown)
VH: EVQLVESGGGLVKPGGSLRLSCAASGFIFSDYNMNWVRQAPGKGLEWVSSITRSSRTIYYADSVKGRFTISRDNAKNSLHLQMNSLRDADTAVYYCAREDFDVSTGPYYMDVWGNGTTVIVSS
VL: EIVLTQSPGTLSLSPGERATLSCRASQSVSNMFLVWYQQKPGQAPRLLMYGASTRATDIPDRFSGSGSGTDFTLTISRLEPEDFAVYYCQQNGNSPYTFGQGTKLEIK
B4: h37D5 (antibody, V domains shown)
VH: EEQLVESGGRLLRPGESLSLSCAAVGFNFGDFGMAWVRQPPGKGLEWVAGINWSGHSTGFVDSMKGRLTISRDSAKSSLFLQMNSLRGEDTAVYYCARVGRLCSGDICDSMGAFDLWGQGTMVTVSS
VL: DIQMTQSPSTLSASIGDRVTITCRASQTIDNWLAWYQQRPGKAPKLLIYQASSLQSGVSSRFRGSGSGTEFTLTITSLQPDDFATYYCQKSNGYSRTFGQGTKVEIK
B5: hm12G10 (antibody, V domains shown)
VH: EVQLLESGGRLLRPGGSLSLSCVASGFYFGDFGMSWVRQVPGKGLEWVSGIDWSGRSTGYVDSMKGRLTISRDNDKSSLYLQMNDLRGEDTAVYYCARVGRLCSGDSCDSMGAFDLWGQGTMVTVSS
VL: DIQLTQSPSTLSASIGDSVTITCRASQNIDNWLAWYQQKPGKAPRLLIYKASSLGSGVSSKFRGSGFGTEFTLTITSLQPDDFATYYCQKSNGYSRTFGQGTKVDIK
B6: hm37D5 (antibody, V domains shown)
VH: EEQLVESGGRLLRPGESLSLSCAAVGFNFGDFGMAWVRQPPGKGLEWVAGINWSGHSTGFVDSMKGRLTISRDSAKSSLFLQMNSLRGEDTAVYYCARVGRLCSGDICDSMGAFDLWGQGTMVTVSS
VL: DIQMTQSPSTLSASIGDRVTITCRASQTIDNWLAWYQQRPGKAPKLLIYQASSLQSGVSSRFRGSGSGTEFTLTITSLQPDDFATYYCQKSNGYSRTFGQGTKVEIK
B7: h12G10 (antibody, human IgG1, V domains shown)
VH: EVQLLESGGRLLRPGGSLSLSCVASGFYFGDFGMSWVRQVPGKGLEWVSGIDWSGRSTGYVDSMKGRLTISRDNDKSSLYLQMNDLRGEDTAVYYCARVGRLCSGDSCDSMGAFDLWGQGTMVTVSS
VL: DIQLTQSPSTLSASIGDSVTITCRASQNIDNWLAWYQQKPGKAPRLLIYKASSLGSGVSSKFRGSGFGTEFTLTITSLQPDDFATYYCQKSNGYSRTFGQGTKVDIK

Biological target: natural peanut extract
Assay: ELISA, antigen-coated plate

Q: With B1 as the binder, how does the EC50 read?
A: 4.8 ng/mL

Q: Which EC50 does the source give for B2 here?
A: 2.8 ng/mL

Q: With B3 as the binder, how does the EC50 read?
A: 2.8 ng/mL

Q: For B4, which EC50 is on record?
A: 6.5 ng/mL

Q: With B5 as the binder, how does the EC50 read?
A: 8.5 ng/mL

Q: Which EC50 does the source give for B6 here?
A: 7.1 ng/mL

Q: For B7, which EC50 is on record?
A: 8.1 ng/mL
